Substrate in series [1]: O=C(O)CCC(=O)N[C@H](CCC(=O)O)C(=O)O
The experiment in a line: steady-state kinetics. Format: biochemical, Bordetella bronchiseptica. The note with it: Zn2+; pH 7.5.

Substrate in series [2]: O=CN[C@H](CCC(=O)O)C(=O)O
The experiment in a line: steady-state kinetics. It counts as biochemical, Bordetella bronchiseptica. The conditions noted are these: Zn2+; pH 7.5.

This is an account of results in PMC2748305.

What is called kcat/Km is the turnover number divided by the Michaelis constant. In general, Km refers to the substrate concentration at which the rate is half of its maximum. The term kcat denotes the maximal rate divided by the concentration of active sites.

B1: Bb3285 (N-acyl-D-glutamate deacylase) (Bordetella bronchiseptica RB50) (protein)
chain: MQNAEKLDFKITGGWIIDGTGAPRRRADLGVRDGRIAAIGELGAHPARHAWDASGKIVAPGFIDVHGHDDLMFVEKPDLRWKTSQGITTVVVGNCGVSAAPAPLPGNTAAALALLGETPLFADVPAYFAALDAQRPMINVAALVGHANLRLAAMRDPQAAPTAAEQQAMQDMLQAALEAGAVGFSTGLAYQPGAVAQAAELEGLARVAAERRRLHTSHIRNEADGVEAAVEEVLAIGRGTGCATVVSHHKCMMPQNWGRSRATLANIDRAREQGVEVALDIYPYPGSSTILIPERAETIDDIRITWSTPHPECSGEYLADIAARWGCDKTTAARRLAPAGAIYFAMDEDEVKRIFQHPCCMVGSDGLPNDARPHPRLWGSFTRVLGRYVREARLMTLEQAVARMTALPARVFGFAERGVLQPGAWADVVVFDPDTVADRATWDEPTLASVGIAGVLVNGAEVFPQPPADGRPGQVLRAGA
In the case of B1, the kcat/Km in “steady-state kinetics [1]” stood at 96000 ± 35000 M⁻¹ s⁻¹. Further, in “steady-state kinetics [2]”, the Michaelis-Menten constant (Km) worked out at 380 ± 35 µM and the kcat was found to be 2200 ± 72 s⁻¹.
